Patent publication US20170369552A1

Tests used:
[1] = biological target: VEGF165, a splice variant of VEGF-A (UniProt P15692); experiment: cell-based or functional assay
[2] = biological target: VEGF165, a splice variant of VEGF-A (UniProt P15692); experiment: competitive binding in solution; 5 pM VEGF165 overnight, free VEGF165 by Quantikine sandwich ELISA
[3] = biological target: VEGF165, a splice variant of VEGF-A (UniProt P15692); experiment: direct binding ELISA; VEGF165 coated, anti-human IgG Fc-HRP detection

Sequence of VEGF165, a splice variant of VEGF-A (P15692 other isoform, or with tags, fused parts or gaps mutant): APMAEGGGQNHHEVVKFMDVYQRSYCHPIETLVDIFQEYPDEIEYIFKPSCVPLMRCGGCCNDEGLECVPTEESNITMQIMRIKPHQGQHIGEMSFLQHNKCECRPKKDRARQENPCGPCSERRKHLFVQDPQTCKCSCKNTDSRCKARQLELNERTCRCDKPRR

In the case of “Positive Control 1 (synthesized VEGF Trap) (from UniProt P17948 129-230; P35968 225-327) (Fc fusion)”, the inhibition of VEGF-dependent HUVEC proliferation, IC50 [1] is reported as 68 pM, the IC50 [2] is reported as 5.17 pM and the EC50 [3] is reported as 87 pM.
